# Data taken from paper PMC8988209, “AAV‐mediated delivery of an anti‐BACE1 VHH alleviates pathology in an Alzheimer's disease model” (EMBO Molecular Medicine, 2022).
# B1: VHH‐4A2 (VHH)
# VHH: QVQLQESGGGLVQPGGSLRLSCAASGFTFETQYMTWVRQAPGKGPEYVSSINSGGTIKYYANSSVKGRFTISRDNAKNTLYLQMNNLRPEDTAIYYCQLGQWAGVGAASSRGQGTQVTVSS
# B2: VHH‐10C4 (VHH)
# VHH: QVQLQESGGGSVQAGGFLRLSCAASGYTYSTCSMAWYRQAPGKERELVSSIRNDGSTAYADSVKGRFTISQDNAKNTVYLQMNSLKPEDTAMYYCNIRIGVGPGGTCSIYAPYWGEGTQVTVSS
# B3: VHH‐B9 (VHH)
# VHH: DVQLQESGGGSVQAGGSLRLSCAASEYTYGYCSMGWYRQAPGKERELVSTITSDGSTSYVDSVKGRFTISQDNAKNTVYLQMNSLKPEDTAKYYCYTKTCANKLGAKFISWGQGTQVTVSS
# notes: Recombinant form used in SPR, BLI, dot blot (detected by anti-His) and the cleavage assays; source: E. coli WK6 (pHEN6), periplasmic extract, purified (Ni-NTA, Superdex-75); not shown: His6, C-terminal, kept
# Experiments:
# [1] = target: human BACE1 (amino acids 1–460) fused to the constant region of human IgG1 (hBACE1:Fc), wild type (human) (UniProt P56817)
# Sequence of human BACE1 (amino acids 1–460) fused to the constant region of human IgG1 (hBACE1:Fc), wild type (human) (P56817 22-460): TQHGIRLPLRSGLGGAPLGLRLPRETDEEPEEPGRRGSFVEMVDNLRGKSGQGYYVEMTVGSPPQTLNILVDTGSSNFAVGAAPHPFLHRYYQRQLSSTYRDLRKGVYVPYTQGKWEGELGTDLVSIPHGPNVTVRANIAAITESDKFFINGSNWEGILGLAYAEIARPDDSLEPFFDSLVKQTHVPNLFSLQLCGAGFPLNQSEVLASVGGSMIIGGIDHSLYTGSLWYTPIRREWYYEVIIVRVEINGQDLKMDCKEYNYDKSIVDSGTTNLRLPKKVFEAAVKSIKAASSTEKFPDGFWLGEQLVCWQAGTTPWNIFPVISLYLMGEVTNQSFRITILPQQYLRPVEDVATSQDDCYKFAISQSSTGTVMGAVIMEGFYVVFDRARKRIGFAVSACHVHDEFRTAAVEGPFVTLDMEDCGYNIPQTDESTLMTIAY
# [2] = target: purified human BACE1 ectodomain (human) (UniProt P56817); experiment: SPR; BIAcore; 2,500 RU purified BACE1 ectodomain amine-coupled to a CM5 chip; VHHs injected at 0–500 nM, 25°C; citrate buffer with 150 mM NaCl, 3.5 mM EDTA, 0.005% Tween-20 at pH 4.5
# Sequence of purified human BACE1 ectodomain (human) (P56817 22-457): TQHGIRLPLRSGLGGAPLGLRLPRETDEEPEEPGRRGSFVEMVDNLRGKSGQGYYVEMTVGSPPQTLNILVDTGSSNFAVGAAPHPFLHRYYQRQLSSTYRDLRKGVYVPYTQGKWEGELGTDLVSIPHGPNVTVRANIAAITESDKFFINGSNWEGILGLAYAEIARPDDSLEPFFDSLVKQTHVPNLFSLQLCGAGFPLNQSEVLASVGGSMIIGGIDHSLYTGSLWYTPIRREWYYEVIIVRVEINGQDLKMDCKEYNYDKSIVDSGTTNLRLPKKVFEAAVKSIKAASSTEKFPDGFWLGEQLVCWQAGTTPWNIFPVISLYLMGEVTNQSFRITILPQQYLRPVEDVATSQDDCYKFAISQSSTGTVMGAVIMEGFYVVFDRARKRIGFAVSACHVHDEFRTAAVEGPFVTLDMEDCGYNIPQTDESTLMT
# [3] = target: purified human BACE1 ectodomain (human) (UniProt P56817); experiment: SPR; BIAcore; 2,500 RU purified BACE1 ectodomain amine-coupled to a CM5 chip; VHHs injected at 0–500 nM, 30 μl/min, 25°C; HBS buffer (10 mM Hepes (pH 7.5), 150 mM NaCl, 3.5 mM EDTA, 0.005% Tween-20); table gives pH 7.0
# biotinylated mouse BACE1 [4] = target: T1, biotinylated mouse BACE1 (Mus musculus, UniProt P56818, biotin); experiment: cell-based or functional assay
# T1 sequence (P56818 46-501): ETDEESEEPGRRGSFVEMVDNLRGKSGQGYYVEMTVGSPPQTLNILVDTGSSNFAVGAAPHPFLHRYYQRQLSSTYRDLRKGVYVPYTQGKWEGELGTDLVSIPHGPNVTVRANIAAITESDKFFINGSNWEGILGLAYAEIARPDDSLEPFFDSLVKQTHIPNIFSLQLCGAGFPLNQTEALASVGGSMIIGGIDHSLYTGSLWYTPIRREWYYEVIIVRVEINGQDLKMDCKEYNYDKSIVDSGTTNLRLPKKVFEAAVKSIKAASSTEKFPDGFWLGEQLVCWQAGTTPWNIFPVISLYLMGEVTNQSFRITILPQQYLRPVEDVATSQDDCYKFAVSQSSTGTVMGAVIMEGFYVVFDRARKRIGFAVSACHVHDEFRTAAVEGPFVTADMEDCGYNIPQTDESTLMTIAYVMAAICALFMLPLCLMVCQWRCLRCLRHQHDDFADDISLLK
# [5] = target: human BACE1 (amino acids 1–460) fused to the constant region of human IgG1 (hBACE1:Fc), wild type (Homo sapiens, UniProt P56817); experiment: cell-based or functional assay
# Sequence of human BACE1 (amino acids 1–460) fused to the constant region of human IgG1 (hBACE1:Fc), wild type (P56817 22-460): as the sequence (P56817 22-460) above
# mouse BACE2 = target: T2, mouse BACE2 (Mus musculus, UniProt Q9JL18); experiment: BLI; OctetRED96; biotinylated human or mouse BACE1 immobilised at 1 μg/ml on streptavidin biosensors; serial dilutions of VHH-B9 (table: Conc. 100 nM); Kinetic Buffer, 25°C, 1,000 rpm; 1:1 fitting model; settings: both partners purified
# T2 construct: mouse BACE2; also called mBACE2
# T2 sequence (Q9JL18 20-514): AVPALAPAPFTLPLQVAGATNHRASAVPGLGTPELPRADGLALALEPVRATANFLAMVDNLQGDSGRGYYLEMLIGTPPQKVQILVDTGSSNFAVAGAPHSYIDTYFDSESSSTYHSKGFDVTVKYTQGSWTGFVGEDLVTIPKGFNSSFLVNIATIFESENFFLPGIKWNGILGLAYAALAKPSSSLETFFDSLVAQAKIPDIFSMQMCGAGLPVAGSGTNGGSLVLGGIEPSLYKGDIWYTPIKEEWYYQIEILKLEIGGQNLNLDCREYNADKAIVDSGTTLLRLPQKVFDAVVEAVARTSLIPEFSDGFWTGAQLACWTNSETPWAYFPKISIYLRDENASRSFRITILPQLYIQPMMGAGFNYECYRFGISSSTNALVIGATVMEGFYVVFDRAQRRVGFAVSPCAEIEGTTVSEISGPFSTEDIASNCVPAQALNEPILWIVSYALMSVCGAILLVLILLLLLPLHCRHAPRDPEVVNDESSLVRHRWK
# biotinylated human BACE1 = target: T3, biotinylated human BACE1 (Homo sapiens, UniProt P56817, biotin); experiment: as above; settings: both partners purified
# T3 construct: human BACE1, biotinylated and immobilised on streptavidin biosensors; Probably an ectodomain preparation; also called hBACE1; biotinylated BACE1
# T3 sequence (P56817 46-501): as the sequence (P56818 46-501) above, with S6P, I162V, I165L, T180S, A182V, V340I, A393L, H443Q counted along it
# biotinylated mouse BACE1 [6] = target: T1, biotinylated mouse BACE1; experiment: as above; settings: both partners purified
Binder,"EC50 of inhibition of hBACE1:Fc in the in vitro APP cleavage assay (MBP-C125sw substrate, cleavage product by ELISA) [1] [nM]",Kd [2] [nM],koff [2] [s⁻¹],kon [2] [M⁻¹ s⁻¹],Kd [3] [nM],koff [3] [s⁻¹],kon [3] [M⁻¹ s⁻¹],"EC50 of lowering Aβ1-40 (ELISA of conditioned medium) in primary mouse neurons expressing human APP695, VHH-B9 from 10 µM to 0.7 nM (biotinylated mouse BACE1 [4]) [nM]","EC50 of inhibition of hBACE1:Fc in the in vitro APP cleavage assay (MBP-C125sw substrate, cleavage product by ELISA) [5] [nM]",binding result (mouse BACE2),Kd (biotinylated human BACE1) [nM],koff (biotinylated human BACE1) [s⁻¹],kon (biotinylated human BACE1) [M⁻¹ s⁻¹],Kd (biotinylated mouse BACE1 [6]) [nM],koff (biotinylated mouse BACE1 [6]) [s⁻¹],kon (biotinylated mouse BACE1 [6]) [M⁻¹ s⁻¹]
B1,789,21.2,0.00841,397000,48.2,0.0231,479000,,,,,,,,,
B2,112,27.7,0.0125,451000,74.7,0.00792,106000,,,,,,,,,
B3,,1.9,0.00013,662000,3.7,0.00098,267000,85.4,99.2,no binding (tested: 100 nM),2.9,0.000443,153000,3.2,0.00072,224000
